These results are taken from the FLAb antibody collection (doi:10.7554/elife.23156).

B1: scFv; the commonest letter at each place (parent)
chain 1: EVKLDETGGGLVQPGRPMKLSCVASGFTFSDYWMNWVRQSPEKGLEWVAQIRNKPYNYETYYSDSVKGRFTISRDDSKSSVYLQMNNLRVEDMGIYYCTGSYYGMDYWGQGTSVTVS
chain 2: DVVMTQTPLSLPVSLGDQASISCRSSQSLVHSNGNTYLRWYLQKPGQSPKVLIYKVSNRFSGVPDRFSGSGSGTDFTLKISRVEAEDLGVYFCSQSTHVPWTFGGGTKLEIK

The variants in the series “fluorescein” derive from B1. Put plainly: Kd (Tite-Seq). Particulars: with fluorescein; format: scFv 4-4-20, heavy + light.
In series [1] the parent is B1. Kind of series: yeast surface expression (ratio to wild type); higher = more expressed. The following applies: format: scFv 4-4-20, heavy + light.

Usually Kd stands for the constant that tells how readily two partners part at equilibrium.

chain 1 Y103S M105R: the Kd with fluorescein stood at 0.176 µM. The yeast surface expression in series [1] was determined as 0.819.

In the case of chain 1 Y107A G109L, in the series with fluorescein, the Kd was ≥ 10 µM. Further, in series [1], the yeast surface expression is 0.218.

In the case of chain 1 Y107A G109Q, in the series with fluorescein, the Kd was ≥ 10 µM. In addition, the yeast surface expression in series [1] came to 0.292.

For chain 1 Y107A G109M, the Kd with fluorescein is ≥ 10 µM. The yeast surface expression in series [1] was 0.209.

In the case of chain 1 Y107E W108E, the Kd with fluorescein is ≥ 10 µM. Moreover, the yeast surface expression in series [1] came out at 0.485.

For chain 1 Y107E W108K, the Kd in the series with fluorescein was ≥ 10 µM. Also, the yeast surface expression in series [1] was 0.513.

As to chain 1 Y103S W108R, the Kd in the series with fluorescein is ≥ 10 µM. Moreover, in series [1], the yeast surface expression came out at 0.441.

As for chain 1 Y103N G109P, in the series with fluorescein, the Kd was ≥ 10 µM. Besides, the yeast surface expression in series [1] was found to be 0.519.

chain 1 Y103Q D106M: the Kd with fluorescein was ≥ 10 µM. In addition, the yeast surface expression in series [1] is 0.805.

As to chain 1 Y103R G109V, in the series with fluorescein, the Kd is ≥ 10 µM. In addition, in series [1], the yeast surface expression was 0.47.

For the variant chain 1 Y103R G109I, the Kd in the series with fluorescein was ≥ 10 µM. Further, the yeast surface expression in series [1] was determined as 0.291.

Regarding chain 1 Y103V D106H, the Kd in the series with fluorescein is ≥ 10 µM. In series [1], the yeast surface expression amounted to 0.384.

Take chain 1 Y103V Y107M: the Kd with fluorescein is ≥ 10 µM. In addition, the yeast surface expression in series [1] was 0.53.

On to chain 1 Y103V Y107V, for which, in the series with fluorescein, the dissociation constant Kd is ≥ 10 µM. Further, in series [1], the yeast surface expression was found to be 0.603.

Take chain 1 Y107I W108R: the Kd in the series with fluorescein is ≥ 10 µM. In addition, the yeast surface expression in series [1] was 0.466.

chain 1 Y107I W108S: the Kd in the series with fluorescein is ≥ 10 µM. In addition, the yeast surface expression in series [1] is 0.786.

With chain 1 Y107P G109N, in the series with fluorescein, the Kd was ≥ 10 µM. In addition, the yeast surface expression in series [1] stood at 0.355.

On to chain 1 Y107T W108A, for which the Kd in the series with fluorescein worked out at 0.00215 µM. In series [1], the yeast surface expression was found to be 0.476.

With chain 1 Y103V M105P, the Kd in the series with fluorescein is ≥ 10 µM. Also, in series [1], the yeast surface expression was 0.474.

Turning to chain 1 Y107R W108N, in the series with fluorescein, the equilibrium dissociation constant (Kd) is ≥ 10 µM. For the same variant, the yeast surface expression in series [1] was found to be 0.495.

Take unchanged: the Kd with fluorescein was found to be 0.00135 µM. Also, the yeast surface expression in series [1] was found to be 1.

In the case of chain 1 Y107F W108E, the Kd with fluorescein was ≥ 10 µM. For the same variant, the yeast surface expression in series [1] was determined as 0.411.

In the case of chain 1 Y103W Y107W, in the series with fluorescein, the Kd was determined as 0.00966 µM. Further, in series [1], the yeast surface expression is 0.724.

Regarding chain 1 Y103R Y107F, the Kd in the series with fluorescein was found to be 0.00546 µM. In series [1], the yeast surface expression is 0.936.

Regarding chain 1 Y103T D106Y, the equilibrium dissociation constant (Kd) with fluorescein was ≥ 10 µM. Further, the yeast surface expression in series [1] is 0.37.

For the variant chain 1 Y103T D106R, the Kd with fluorescein is ≥ 10 µM. Moreover, in series [1], the yeast surface expression was found to be 0.311.

With chain 1 Y103T D106S, the Kd in the series with fluorescein was ≥ 10 µM. Moreover, the yeast surface expression in series [1] is 0.883.

With chain 1 Y107G G109V, the Kd in the series with fluorescein was ≥ 10 µM. Also, in series [1], the yeast surface expression stood at 0.273.

Take chain 1 Y107S G109C: in the series with fluorescein, the Kd was ≥ 10 µM. Further, the yeast surface expression in series [1] was 0.174.

Consider chain 1 Y103L Y107D, for which the Kd with fluorescein was ≥ 10 µM. Further, the yeast surface expression in series [1] worked out at 0.471.

Consider chain 1 Y103L Y107S, for which the Kd with fluorescein was 0.55 µM. For the same variant, the yeast surface expression in series [1] worked out at 0.878.

chain 1 Y103S G104D: in the series with fluorescein, the Kd was ≥ 10 µM. In addition, the yeast surface expression in series [1] amounted to 1.12.

Turning to chain 1 Y103S G104N, the Kd with fluorescein is ≥ 10 µM. The yeast surface expression in series [1] came out at 1.04.

As for chain 1 Y103P W108Y, the Kd with fluorescein is ≥ 10 µM. For the same variant, the yeast surface expression in series [1] worked out at 0.364.

For the variant chain 1 Y103P W108M, in the series with fluorescein, the Kd is ≥ 10 µM. The yeast surface expression in series [1] turned out to be 0.463.

Regarding chain 1 Y103W M105L G109W, the Kd in the series with fluorescein is ≥ 10 µM. Moreover, the yeast surface expression in series [1] came out at 0.199.

As to chain 1 Y103L M105I, the Kd with fluorescein was ≥ 10 µM. Besides, in series [1], the yeast surface expression turned out to be 0.741.

In the case of chain 1 Y103L M105C, in the series with fluorescein, the Kd is ≥ 10 µM. Moreover, the yeast surface expression in series [1] worked out at 1.

Regarding chain 1 Y103L M105G, the Kd with fluorescein is ≥ 10 µM. Also, in series [1], the yeast surface expression worked out at 1.02.

In the case of chain 1 Y103V G109L, the Kd with fluorescein was ≥ 10 µM. Moreover, the yeast surface expression in series [1] worked out at 0.247.

As for chain 1 Y107C W108V, the Kd with fluorescein came to 0.00468 µM. Besides, the yeast surface expression in series [1] worked out at 0.304.

As for chain 1 Y103P D106H, in the series with fluorescein, the Kd is ≥ 10 µM. Moreover, in series [1], the yeast surface expression stood at 0.565.

As for chain 1 Y103P D106M, the Kd in the series with fluorescein is ≥ 10 µM. In addition, the yeast surface expression in series [1] was determined as 0.742.

Regarding chain 1 Y107G W108A, the Kd in the series with fluorescein was ≥ 10 µM. Besides, the yeast surface expression in series [1] is 0.528.

As to chain 1 Y107H W108T, the Kd with fluorescein is 0.000989 µM. Moreover, the yeast surface expression in series [1] turned out to be 0.924.

chain 1 Y107D G109R: the Kd in the series with fluorescein was ≥ 10 µM. In addition, the yeast surface expression in series [1] worked out at 0.366.

For chain 1 Y107P W108A, the Kd in the series with fluorescein was ≥ 10 µM. Besides, the yeast surface expression in series [1] is 0.455.

As for chain 1 Y103W M105T, the Kd with fluorescein is ≥ 10 µM. For the same variant, the yeast surface expression in series [1] is 0.915.

Regarding chain 1 Y103P G109S, the Kd with fluorescein is ≥ 10 µM. For the same variant, the yeast surface expression in series [1] was determined as 0.828.

Take chain 1 Y103W D106T: in the series with fluorescein, the Kd is ≥ 10 µM. Also, the yeast surface expression in series [1] came out at 0.875.

Take chain 1 Y103W D106K: the Kd with fluorescein is ≥ 10 µM. Moreover, in series [1], the yeast surface expression was 0.245.

Take chain 1 Y107A W108A: the Kd with fluorescein was ≥ 10 µM. Moreover, the yeast surface expression in series [1] is 0.351.

For chain 1 Y103P D106T W108C, the Kd in the series with fluorescein was ≥ 10 µM. Also, the yeast surface expression in series [1] is 0.258.

As to chain 1 Y107R G109S, the Kd with fluorescein was found to be 2.47 µM. Besides, the yeast surface expression in series [1] amounted to 0.665.

Consider chain 1 Y107R G109H, for which the Kd with fluorescein was ≥ 10 µM. In series [1], the yeast surface expression was determined as 0.277.

Take chain 1 Y103M W108M: the Kd in the series with fluorescein was 0.000333 µM. Further, in series [1], the yeast surface expression worked out at 1.13.

Consider chain 1 Y103M W108A, for which the Kd in the series with fluorescein amounted to 0.00746 µM. In series [1], the yeast surface expression amounted to 0.484.

In the case of chain 1 Y103M W108Q, in the series with fluorescein, the Kd worked out at 0.0896 µM. Also, the yeast surface expression in series [1] is 0.547.

For the variant chain 1 Y107W W108T, the Kd in the series with fluorescein is ≤ 0.000316 µM. Moreover, the yeast surface expression in series [1] is 0.647.

Turning to chain 1 Y107D W108C, the Kd with fluorescein was ≥ 10 µM. In addition, in series [1], the yeast surface expression came to 0.269.

For the variant chain 1 Y107D W108N, the Kd with fluorescein was ≥ 10 µM. In series [1], the yeast surface expression is 0.477.

In the case of chain 1 Y107D W108Q, the Kd in the series with fluorescein was ≥ 10 µM. Also, the yeast surface expression in series [1] stood at 0.706.

In the case of chain 1 Y107W G109K, the Kd with fluorescein was ≥ 10 µM. The yeast surface expression in series [1] was 0.336.

Turning to chain 1 Y107N W108D G109C, in the series with fluorescein, the Kd was ≥ 10 µM. Also, in series [1], the yeast surface expression is 0.313.

With chain 1 Y107H, in the series with fluorescein, the dissociation constant Kd was determined as 0.00251 µM. In addition, in series [1], the yeast surface expression amounted to 1.

On to chain 1 Y107A, for which, in the series with fluorescein, the Kd came to 7.33 µM. Besides, in series [1], the yeast surface expression came to 1.

On to chain 1 Y107S, for which, in the series with fluorescein, the Kd worked out at 0.00239 µM. For the same variant, the yeast surface expression in series [1] was 0.77.

For chain 1 Y107L, the Kd with fluorescein came out at 1.91 µM. In addition, in series [1], the yeast surface expression amounted to 1.01.

Turning to chain 1 Y107K, in the series with fluorescein, the Kd is ≥ 10 µM. The yeast surface expression in series [1] amounted to 0.637.

With chain 1 Y107I, in the series with fluorescein, the Kd worked out at 0.676 µM. In addition, the yeast surface expression in series [1] amounted to 0.995.

Take chain 1 Y107T: in the series with fluorescein, the Kd is 0.000784 µM. In series [1], the yeast surface expression turned out to be 0.965.

As for chain 1 Y107N, the Kd in the series with fluorescein turned out to be 0.0104 µM. The yeast surface expression in series [1] came to 0.775.

Regarding chain 1 Y107R, the Kd with fluorescein was found to be 0.102 µM. In addition, in series [1], the yeast surface expression is 0.767.

Consider chain 1 Y107Q, for which, in the series with fluorescein, the Kd was 0.0194 µM. Also, the yeast surface expression in series [1] was 0.757.

On to chain 1 Y107D, for which the Kd with fluorescein was determined as 7.72 µM. Moreover, the yeast surface expression in series [1] worked out at 0.779.

In the case of chain 1 Y107G, the Kd with fluorescein was ≥ 10 µM. Also, the yeast surface expression in series [1] worked out at 0.544.

Consider chain 1 Y107C, for which the Kd with fluorescein was ≥ 10 µM. For the same variant, in series [1], the yeast surface expression is 0.592.

Consider chain 1 Y107M, for which the dissociation constant Kd in the series with fluorescein was 0.0372 µM. Further, the yeast surface expression in series [1] amounted to 0.921.

Take chain 1 Y107E: the Kd with fluorescein stood at 1.72 µM. Moreover, the yeast surface expression in series [1] turned out to be 0.803.

With chain 1 Y107P, in the series with fluorescein, the Kd was ≥ 10 µM. Also, the yeast surface expression in series [1] worked out at 0.414.

Turning to chain 1 Y107F, the Kd with fluorescein turned out to be 0.0017 µM. Moreover, in series [1], the yeast surface expression worked out at 0.928.

chain 1 Y107W: in the series with fluorescein, the Kd was 0.000846 µM. The yeast surface expression in series [1] was 1.11.

chain 1 Y107V: in the series with fluorescein, the Kd stood at 0.122 µM. The yeast surface expression in series [1] was 1.15.
